Test results from article PMC4420465, “A Novel Type II NAD^+-Specific Isocitrate Dehydrogenase from the Marine Bacterium Congregibacter litoralis KT71” (PLoS ONE, 2015).

Tests used:
[1] = target: Congregibacter litoralis KT71 NAD+-specific isocitrate dehydrogenase (recombinant ClIDH) (Congregibacter litoralis KT71); test: AUC; sedimentation velocity, Beckman XL-A, 20°C, 116,000 g, continuous c(s) distribution; protein of more than 90% purity after gel filtration; single run
[2] = target: Congregibacter litoralis KT71 NAD+-specific isocitrate dehydrogenase (recombinant ClIDH) (Congregibacter litoralis KT71); test: SEC; gel filtration on a 10/300 Superdex 200 column, 0.05 M potassium phosphate buffer (pH 7.0), 0.15 M NaCl, 0.01% sodium azide; calibrated with ovalbumin, conalbumin, aldolase, ferritin, thyroglobulin
purified protein [3] = substrate: O=C(O)CC(C(=O)O)C(O)C(=O)O; test: purified protein; type: biochemical, Congregibacter litoralis; settings: Mn2+ 2 mM, NAD+ 1 mM, 35 mM Tris-HCl pH 7.5, 25°C
purified protein [4] = substrate: NC(=O)c1ccc[n+]([C@@H]2O[C@H](COP(=O)(O)OP(=O)(O)OC[C@H]3O[C@@H](n4cnc5c(N)ncnc54)[C@H](O)[C@@H]3O)[C@@H](O)[C@H]2O)c1; test: purified protein; type: biochemical, Congregibacter litoralis; settings: Mn2+ 2 mM, DL-isocitrate 1.5 mM, 35 mM Tris-HCl pH 7.5, 25°C, varied: cofactor
purified protein [5] = substrate: NC(=O)c1ccc[n+]([C@@H]2O[C@H](COP(=O)(O)OP(=O)(O)OC[C@H]3O[C@@H](n4cnc5c(N)ncnc54)[C@H](OP(=O)(O)O)[C@@H]3O)[C@@H](O)[C@H]2O)c1; test: purified protein; type: biochemical, Congregibacter litoralis; settings: Mn2+ 2 mM, DL-isocitrate 1.5 mM, 35 mM Tris-HCl pH 7.5, 25°C, varied: cofactor

Molecule	stoichiometry N [1]	stoichiometry N [2]	Km (purified protein [3]) [µM]	Km (purified protein [4]) [µM]	kcat (purified protein [4]) [s⁻¹]	kcat/Km (purified protein [4]) [M⁻¹ s⁻¹]	Km (purified protein [5]) [µM]	kcat (purified protein [5]) [s⁻¹]	kcat/Km (purified protein [5]) [M⁻¹ s⁻¹]
Congregibacter litoralis KT71 NAD+-specific isocitrate dehydrogenase (recombinant ClIDH) (enzyme)	6	6	–	–	–	–	–	–	–
ClIDH (Congregibacter litoralis KT71) (protein, full length 580 residues, 6xHis tag (pET-28b, upstream, kept), E. coli Rosetta (DE3), about 64 kDa subunit, homohexamer) MSNKIKVEKPLVILHGDEMAQIAFERLLEQFVTSRLDINLLEVDLSAEKRFTTNGQVVLDAIDALIEHGVGIKNAGMTVNRSQLDELLAKYPDVKESELDKLATKSPNGAIRKGIGGNITREDIEFQNLTSVRPDWIDRDIEVDTMDSGGLDFSYSELSNATGVAKVMFVGSSGDPVELHRRTLKKGDPWMLANNSLEEVEAWAHRFFQRALDEKRDIYLGLKDTVVPGYDGVMRAAIEAIYERDYKEKVAAAGLKYHYELIDAQAARIVSNPPERALWGVPDNVSGMKLYKLVQQLKHYGLPERKANVSISRMSAGGGDQYGSYNTPAPEDGIIKVVVDGVEKHARMVKANDPILFMSNDRDAIKDWVKQVFKDASINKKEVYFGLKREFVNYDEVYSSIILEIRKELAALDTPPPSFMIMRPSRQLSKMICDPPRWGLYPAQNLDGDIFSDISAALGGSLATASSVIKSKDGTLLYEAPHGTAHDLYLRYLETDGKEAHFNSSALIFAVANALEEMARREENEALADYAQRLKAALIDTVAQGTITGDLKGKTLDPESENVVDMYGFLDAIEANLNAS	–	–	90.8	309.1 ± 11.2	84.7	270000	–	–	–
ClIDH (Congregibacter litoralis KT71; D487R/L488H) (protein, full length 580 residues, 6xHis tag (pET-28b, upstream, kept), E. coli Rosetta (DE3), about 64 kDa subunit, homohexamer) MSNKIKVEKPLVILHGDEMAQIAFERLLEQFVTSRLDINLLEVDLSAEKRFTTNGQVVLDAIDALIEHGVGIKNAGMTVNRSQLDELLAKYPDVKESELDKLATKSPNGAIRKGIGGNITREDIEFQNLTSVRPDWIDRDIEVDTMDSGGLDFSYSELSNATGVAKVMFVGSSGDPVELHRRTLKKGDPWMLANNSLEEVEAWAHRFFQRALDEKRDIYLGLKDTVVPGYDGVMRAAIEAIYERDYKEKVAAAGLKYHYELIDAQAARIVSNPPERALWGVPDNVSGMKLYKLVQQLKHYGLPERKANVSISRMSAGGGDQYGSYNTPAPEDGIIKVVVDGVEKHARMVKANDPILFMSNDRDAIKDWVKQVFKDASINKKEVYFGLKREFVNYDEVYSSIILEIRKELAALDTPPPSFMIMRPSRQLSKMICDPPRWGLYPAQNLDGDIFSDISAALGGSLATASSVIKSKDGTLLYEAPHGTAHRHYLRYLETDGKEAHFNSSALIFAVANALEEMARREENEALADYAQRLKAALIDTVAQGTITGDLKGKTLDPESENVVDMYGFLDAIEANLNAS	–	–	–	663.8 ± 48.6	9.7	15000	156.7 ± 4.8	55.1	350000
